Laboratory results taken from US7662384B2, “Use of anti-α5β1 antibodies to inhibit cancer cell proliferation” (Facet Biotech Corporation, priority 2004, dated 2010).

How the values were obtained:
[1] = target: T1, α5β1 integrin on the cell surface of C8161 (Homo sapiens, UniProt P05556+P08648); assay: FACS analysis of cancer cell line with IIA1; format: binding; conditions: C8161 (melanoma); IIA1 10 μg/ml; background MFI ~5
T1 construct: endogenous in cells
Protocol: (§1) Cells were removed with 5 mM EDTA in Tris-HCl (pH 8.0) and blocked by centrifugation in Hank's balanced salt solution containing 3% heat inactivated FBS, 1% normal goat serum (Sigma) and 1% BSA at 4° C. for 5 minutes. Cells were incubated for 30-60 minutes at 4° C. with the mouse anti-α5β1 antibody, IIA1 (10 μg/ml) in FACS buffer (PBS containing 0.1% BSA). Excess monoclonal antibody was removed by centrifugation and cells were washed two times with FACS buffer prior to resuspending in PE-anti-mouse IgG (H+ L) antibody (Southern Biotech, 1:400 dilution) for 30-60 minutes at 4° C. After washing cells were re-suspended in FACS buffer containing propidium iodide (1 μg/ml). Mean fluorescence intensity (MFI) was measured on a FACSCalibur (Becton Dickinson). Background MFI was ˜5.

[2] = target: T2, α5β1 integrin on the cell surface of SW839 (Homo sapiens, UniProt P05556+P08648); assay: FACS analysis of cancer cell line with IIA1; format: binding; conditions: SW839 (renal); IIA1 10 μg/ml; background MFI ~5
T2 construct: endogenous in cells
T2 sequence (P08648 42-894 limits assumed): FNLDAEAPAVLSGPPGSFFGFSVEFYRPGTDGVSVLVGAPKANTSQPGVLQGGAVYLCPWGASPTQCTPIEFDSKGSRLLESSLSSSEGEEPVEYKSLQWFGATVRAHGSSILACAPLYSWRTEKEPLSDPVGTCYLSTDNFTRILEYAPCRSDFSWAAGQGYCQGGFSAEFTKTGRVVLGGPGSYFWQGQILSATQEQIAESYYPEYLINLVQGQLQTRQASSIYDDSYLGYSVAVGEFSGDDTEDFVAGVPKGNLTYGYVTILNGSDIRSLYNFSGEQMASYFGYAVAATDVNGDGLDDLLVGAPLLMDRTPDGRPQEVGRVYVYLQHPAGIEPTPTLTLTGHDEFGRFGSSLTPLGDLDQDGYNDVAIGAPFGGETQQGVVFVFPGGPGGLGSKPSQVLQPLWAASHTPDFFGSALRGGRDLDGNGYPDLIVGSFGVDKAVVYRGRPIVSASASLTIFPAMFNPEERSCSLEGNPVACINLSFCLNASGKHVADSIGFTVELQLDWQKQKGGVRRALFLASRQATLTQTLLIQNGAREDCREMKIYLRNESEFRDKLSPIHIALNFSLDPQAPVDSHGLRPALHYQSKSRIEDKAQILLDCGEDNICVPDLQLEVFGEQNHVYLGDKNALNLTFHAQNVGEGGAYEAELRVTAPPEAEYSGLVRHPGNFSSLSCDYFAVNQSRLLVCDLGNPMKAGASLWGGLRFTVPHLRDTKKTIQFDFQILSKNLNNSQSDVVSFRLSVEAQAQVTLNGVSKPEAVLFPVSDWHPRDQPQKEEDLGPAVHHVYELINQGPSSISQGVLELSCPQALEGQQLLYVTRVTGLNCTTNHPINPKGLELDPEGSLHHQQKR
T2 sequence (P08648 895-1049 limits assumed): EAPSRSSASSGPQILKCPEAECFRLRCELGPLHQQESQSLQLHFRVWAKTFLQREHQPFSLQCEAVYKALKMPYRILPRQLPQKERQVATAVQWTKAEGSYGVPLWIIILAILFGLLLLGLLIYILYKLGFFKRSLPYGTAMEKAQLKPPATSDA
T2 sequence (P05556 21-798): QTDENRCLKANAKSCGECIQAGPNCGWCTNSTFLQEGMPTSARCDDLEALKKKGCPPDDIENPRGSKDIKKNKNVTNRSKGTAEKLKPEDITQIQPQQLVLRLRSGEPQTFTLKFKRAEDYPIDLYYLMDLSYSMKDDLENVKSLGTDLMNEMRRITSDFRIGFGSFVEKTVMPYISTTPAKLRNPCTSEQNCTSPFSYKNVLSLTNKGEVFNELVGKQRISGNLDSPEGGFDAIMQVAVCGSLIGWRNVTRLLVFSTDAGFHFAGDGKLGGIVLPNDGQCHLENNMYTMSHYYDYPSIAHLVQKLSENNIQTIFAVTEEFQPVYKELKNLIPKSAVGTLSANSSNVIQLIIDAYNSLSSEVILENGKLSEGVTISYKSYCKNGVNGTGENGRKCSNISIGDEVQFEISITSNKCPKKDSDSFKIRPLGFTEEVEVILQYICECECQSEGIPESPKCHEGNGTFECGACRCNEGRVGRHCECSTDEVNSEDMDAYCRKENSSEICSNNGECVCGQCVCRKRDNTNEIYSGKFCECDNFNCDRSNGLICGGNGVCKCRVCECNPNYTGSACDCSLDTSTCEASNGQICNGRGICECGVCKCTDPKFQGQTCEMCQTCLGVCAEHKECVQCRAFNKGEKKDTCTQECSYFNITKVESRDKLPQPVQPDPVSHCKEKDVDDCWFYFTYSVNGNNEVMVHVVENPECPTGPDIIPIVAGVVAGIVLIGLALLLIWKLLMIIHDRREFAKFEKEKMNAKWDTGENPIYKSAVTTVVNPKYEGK
Protocol: as §1

786-0 = assay: M200 in vitro cell proliferation assay; format: cell-based; conditions: 786-0 (renal), 4-day assay
Protocol: (§2) Cancer cell lines were plated at a density of 2500 cells/well in 96-well plates in IMDM with supplements in the presence or absence of 10% FBS. At the time of plating, cells were challenged with various concentrations M200 or a non-function blocking anti-α5 antibody, VC5. Four days later, cell viability was assessed by the CellTiter 96 AQueous Non-Radioactive Cell Proliferation Assay (Promega) according to the manufacturer's instructions. All growth studies were done at least 3 times in triplicate.

A2058 = assay: M200 in vitro cell proliferation assay; format: cell-based; conditions: A2058 (melanoma), 4-day assay
Protocol: as §2

A375 = assay: M200 in vitro cell proliferation assay; format: cell-based; conditions: A375 (melanoma), 4-day assay
Protocol: as §2

A498 = assay: M200 in vitro cell proliferation assay; format: cell-based; conditions: A498 (renal), 4-day assay
Protocol: as §2

A549 = assay: M200 in vitro cell proliferation assay; format: cell-based; conditions: A549 (lung), 4-day assay
Protocol: as §2

ASPC-1 = assay: M200 in vitro cell proliferation assay; format: cell-based; conditions: ASPC-1 (pancreas), 4-day assay
Protocol: as §2

C32 = assay: M200 in vitro cell proliferation assay; format: cell-based; conditions: C32 (melanoma), 4-day assay
Protocol: as §2

C8161 = assay: M200 in vitro cell proliferation assay; format: cell-based; conditions: C8161 (melanoma), 4-day assay
Protocol: as §2

CAPAN-1 = assay: M200 in vitro cell proliferation assay; format: cell-based; conditions: CAPAN-1 (pancreas), 4-day assay
Protocol: as §2

CAPAN-2 = assay: M200 in vitro cell proliferation assay; format: cell-based; conditions: CAPAN-2 (pancreas), 4-day assay
Protocol: as §2

COLO 357 = assay: M200 in vitro cell proliferation assay; format: cell-based; conditions: COLO 357 (pancreas), 4-day assay
Protocol: as §2

DU145 = assay: M200 in vitro cell proliferation assay; format: cell-based; conditions: DU145 (prostate), 4-day assay
Protocol: as §2

EKVX = assay: M200 in vitro cell proliferation assay; format: cell-based; conditions: EKVX (lung), 4-day assay
Protocol: as §2

ES-2 = assay: M200 in vitro cell proliferation assay; format: cell-based; conditions: ES-2 (ovarian), 4-day assay
Protocol: as §2

H460 = assay: M200 in vitro cell proliferation assay; format: cell-based; conditions: H460 (lung), 4-day assay
Protocol: as §2

HCT-116 = assay: M200 in vitro cell proliferation assay; format: cell-based; conditions: HCT-116 (colon), 4-day assay
Protocol: as §2

HT1080 = assay: M200 in vitro cell proliferation assay; format: cell-based; conditions: HT1080 (fibrosarcoma), 4-day assay
Protocol: as §2

HT1376 = assay: M200 in vitro cell proliferation assay; format: cell-based; conditions: HT1376 (bladder), 4-day assay
Protocol: as §2

HT144 = assay: M200 in vitro cell proliferation assay; format: cell-based; conditions: HT144 (melanoma), 4-day assay
Protocol: as §2

MIA PACA-2 = assay: M200 in vitro cell proliferation assay; format: cell-based; conditions: MIA PACA-2 (pancreas), 4-day assay
Protocol: as §2

SN12C = assay: M200 in vitro cell proliferation assay; format: cell-based; conditions: SN12C (renal), 4-day assay
Protocol: as §2

SW1990 = assay: M200 in vitro cell proliferation assay; format: cell-based; conditions: 4-day assay
Protocol: as §2

SW839 = assay: M200 in vitro cell proliferation assay; format: cell-based; conditions: SW839 (renal), 4-day assay
Protocol: as §2

TK-10 = assay: M200 in vitro cell proliferation assay; format: cell-based; conditions: TK-10 (renal), 4-day assay
Protocol: as §2

UACC-62 = assay: M200 in vitro cell proliferation assay; format: cell-based; conditions: UACC-62 (melanoma), 4-day assay
Protocol: as §2

T1 sequence (P08648 42-894 limits assumed): as the sequence (P08648 42-894 limits assumed) above
T1 sequence (P08648 895-1049 limits assumed): as the sequence (P08648 895-1049 limits assumed) above
T1 sequence (P05556 21-798): as the sequence (P05556 21-798) above

B1: IIA1: parent mouse IgG1 class anti-α5β1 antibody shown to inhibit α5β1 integrin binding to fibronectin (antibody, V domains shown)
VH: MAVLGLLLCLVTFPSCVLSQVQLKESGPGLVAPSQSLSITCTISGFSLTDYGVHWVRQPPGKGLEWLVVIWSDGSSTYNSALKSRMTIRKDNSKSQVFLIMNSLQTDDSAMYYCARHGTYYGMTTTGDALDYWGQGTSVTVSS
VL: MDFQVQIFSFLLISASVIMSRGQIVLTQSPAIMSASLGERVTMTCTASSSVSSNYLHWYQQKPGSAPNLWIYSTSNLASGVPARFSGSGSGTSYSLTISSMEAEDAATYYCHQYLRSPPTFGGGTKLEIK
modifications: mus muscalus
α5β1 Surface Expression (MFI) [1]: 122 MFI
α5β1 Surface Expression (MFI) [2]: 65.8 MFI

B2: M200: chimeric IgG4 anti-α5β1 antibody derived from IIA1; generic name volociximab (antibody, V domains shown)
VH: MAVLGLLLCLVTFPSCVLSQVQLKESGPGLVAPSQSLSITCTISGFSLTDYGVHWVRQPPGKGLEWLVVIWSDGSSTYNSALKSRMTIRKDNSKSQVFLIMNSLQTDDSAMYYCARHGTYYGMTTTGDALDYWGQGTSVTVSS
VL: MDFQVQIFSFLLISASVIMSRGQIVLTQSPAIMSASLGERVTMTCTASSSVSSNYLHWYQQKPGSAPNLWIYSTSNLASGVPARFSGSGSGTSYSLTISSMEAEDAATYYCHQYLRSPPTFGGGTKLEIKDMSVDMSV
modifications: chimeric antibody
notes: chimeric IgG4 anti-α5β1 antibody derived from IIA1; generic name volociximab
% Growth Inhibition +Serum (786-0; 10% FBS): 0%
% Growth Inhibition −Serum (786-0; absence of serum): 10%
% Growth Inhibition +Serum (A2058; 10% FBS): 0%
% Growth Inhibition −Serum (A2058; absence of serum): 0%
% Growth Inhibition +Serum (A375; 10% FBS): 0%
% Growth Inhibition −Serum (A375; absence of serum): 5%
% Growth Inhibition +Serum (A498; 10% FBS): 0%
% Growth Inhibition −Serum (A498; absence of serum): 5%
% Growth Inhibition +Serum (A549; 10% FBS): 0%
% Growth Inhibition −Serum (A549; absence of serum): 40%
% Growth Inhibition +Serum (ASPC-1; 10% FBS): 0%
% Growth Inhibition −Serum (ASPC-1; absence of serum): 0%
% Growth Inhibition +Serum (C32; 10% FBS): 0%
% Growth Inhibition −Serum (C32; absence of serum): 0%
% Growth Inhibition +Serum (C8161; 10% FBS): 0%
% Growth Inhibition −Serum (C8161; absence of serum): 0%
% Growth Inhibition +Serum (CAPAN-1; 10% FBS): 0%
% Growth Inhibition −Serum (CAPAN-1; absence of serum): 0%
% Growth Inhibition +Serum (CAPAN-2; 10% FBS): 0%
% Growth Inhibition −Serum (CAPAN-2; absence of serum): 0%
% Growth Inhibition +Serum (COLO 357; 10% FBS): 0%
% Growth Inhibition −Serum (COLO 357; absence of serum): 0%
% Growth Inhibition +Serum (DU145; 10% FBS): 0%
% Growth Inhibition −Serum (DU145; absence of serum): 0%
% Growth Inhibition +Serum (EKVX; 10% FBS): 0%
% Growth Inhibition −Serum (EKVX; absence of serum): 10%
% Growth Inhibition +Serum (ES-2; 10% FBS): 0%
% Growth Inhibition −Serum (ES-2; absence of serum): 0%
% Growth Inhibition +Serum (H460; 10% FBS): 0%
% Growth Inhibition −Serum (H460; absence of serum): 40%
% Growth Inhibition +Serum (HCT-116; 10% FBS): 0%
% Growth Inhibition −Serum (HCT-116; absence of serum): 15%
% Growth Inhibition +Serum (HT1080; 10% FBS): 0%
% Growth Inhibition −Serum (HT1080; absence of serum): 0%
% Growth Inhibition +Serum (HT1376; 10% FBS): 0%
% Growth Inhibition −Serum (HT1376; absence of serum): 0%
% Growth Inhibition +Serum (HT144; 10% FBS): 0%
% Growth Inhibition −Serum (HT144; absence of serum): 0%
% Growth Inhibition +Serum (MIA PACA-2; 10% FBS): 0%
% Growth Inhibition −Serum (MIA PACA-2; absence of serum): 20%
% Growth Inhibition +Serum (SN12C; 10% FBS): 0%
% Growth Inhibition −Serum (SN12C; absence of serum): 5%
% Growth Inhibition +Serum (SW1990; 10% FBS): 0%
% Growth Inhibition −Serum (SW1990; absence of serum): 10%
% Growth Inhibition +Serum (SW839; 10% FBS): 0%
% Growth Inhibition −Serum (SW839; absence of serum): 30%
% Growth Inhibition +Serum (TK-10; 10% FBS): 0%
% Growth Inhibition −Serum (TK-10; absence of serum): 0%
% Growth Inhibition +Serum (UACC-62; 10% FBS): 0%
% Growth Inhibition −Serum (UACC-62; absence of serum): 0%
